According to publication PMC4598761, “Co-Expression of NEU2 and GBA3 Causes a Drastic Reduction in Cytosolic Sialyl Free N-glycans in Human MKN45 Stomach Cancer Cells—Evidence for the Physical Interaction of NEU2 and GBA3” (Biomolecules, 2015):

Target: T1, His-GBA3-HA (recombinant epitope-tagged cytosolic β-glycosidase GBA3) (human, UniProt Q9H227 1-469)
T1 construct: GBA3, cytosolic β-glycosidase, human; Construct pDEST17-His-GBA3-HA; also called β-galactosidase/β-glucosidase; source: E. coli BL21(AI), purified (Ni-Sepharose 6 Fast Flow); not shown: His6, N-terminal, kept; HA, C-terminal, kept
T1 sequence (looked up): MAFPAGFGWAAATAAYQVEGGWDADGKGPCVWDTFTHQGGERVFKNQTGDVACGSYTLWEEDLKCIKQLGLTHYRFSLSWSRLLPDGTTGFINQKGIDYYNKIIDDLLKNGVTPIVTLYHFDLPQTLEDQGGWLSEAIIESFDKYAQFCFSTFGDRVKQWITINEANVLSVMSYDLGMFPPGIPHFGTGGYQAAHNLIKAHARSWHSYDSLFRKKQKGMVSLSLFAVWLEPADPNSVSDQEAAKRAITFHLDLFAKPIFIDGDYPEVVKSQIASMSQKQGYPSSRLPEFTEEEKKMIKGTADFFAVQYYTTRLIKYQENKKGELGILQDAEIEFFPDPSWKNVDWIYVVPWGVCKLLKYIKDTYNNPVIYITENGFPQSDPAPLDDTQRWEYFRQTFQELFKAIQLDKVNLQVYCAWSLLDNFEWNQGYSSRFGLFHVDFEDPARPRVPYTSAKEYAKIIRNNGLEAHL
Experiment: pull-down; purified recombinant proteins mixed overnight at 4 °C (1.5 mg/mL each), precipitated with 20 μL Ni-Sepharose 6 Fast Flow for 1 h at 4 °C (His-tagged protein held), washed three times with PBS, western blotting
Settings: both partners purified

binding result: binds
B1: GST-NEU2 (recombinant cytosolic sialidase NEU2) (enzyme, human, UniProt Q9Y3R4 1-380, looked up)
chain: MASLPVLQKESVFQSGAHAYRIPALLYLPGQQSLLAFAEQRASKKDEHAELIVLRRGDYDAPTHQVQWQAQEVVAQARLDGHRSMNPCPLYDAQTGTLFLFFIAIPGQVTEQQQLQTRANVTRLCQVTSTDHGRTWSSPRDLTDAAIGPAYREWSTFAVGPGHCLQLHDRARSLVVPAYAYRKLHPIQRPIPSAFCFLSHDHGRTWARGHFVAQDTLECQVAEVETGEQRVVTLNARSHLRARVQAQSTNDGLDFQESQLVKKLVEPPPQGCQGSVISFPSPRSGPGSPAQWLLYTHPTHSWQRADLGAYLNPRPPAPEAWSEPVLLAKGSCAYSDLQSMGTGPDGSPLFGCLYEANDYEEIVFLMFTLKQAFPAEYLPQ
notes: NEU2, cytosolic sialidase; source: E. coli BL21(DE3), purified (Glutathione Sepharose 4B)
